Source: PMC3791465

Target: 6 × His-tagged recombinant PHB2, Q99623
Experiment: SPR

Chain of 6 × His-tagged recombinant PHB2, Q99623 (Q99623 whole entry): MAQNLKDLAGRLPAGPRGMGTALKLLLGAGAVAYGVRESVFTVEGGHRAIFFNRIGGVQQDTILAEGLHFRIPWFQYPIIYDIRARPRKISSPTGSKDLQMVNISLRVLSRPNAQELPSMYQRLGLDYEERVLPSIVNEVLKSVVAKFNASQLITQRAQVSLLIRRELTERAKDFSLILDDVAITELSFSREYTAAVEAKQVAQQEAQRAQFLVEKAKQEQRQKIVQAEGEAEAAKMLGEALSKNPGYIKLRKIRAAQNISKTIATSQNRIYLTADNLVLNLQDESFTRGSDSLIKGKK

Kd: 18.9 µM
Binder: QMLSDLTLQLRQR (modifications not checked) [ERα activity-regulator synthetic peptide (ERAP)]
